From the supplement of paper PMC10567573

B1: EFHC1 (parent)
chain: NIYYYLEDDSMSVIEPVVENSGIL
B2: PLD5 (parent)
chain: KRTYWPDLDAKIREALVLRSVRVR

Variants of: B1
Assay: protein stability index of a GFP-peptide fusion (GPS, HEK-293T) (PSI 1-6); higher = more stable
Conditions: c terminus: a fixed tail appended
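Also: lentivirally expressed fusions sorted by FACS into six bins by GFP to DsRed ratio, PSI derived from sequencing read proportions per bin multiplied by bin number.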

Protein stability index, by site and new letter:
N20: V 2.71; S 2.13; D 1.7; H 1.79; E 2.46; P 2.95; Q 1.67; A 1.69; K 2.06; G 2.77; W 2.37; R 1.33; L 3.52; C 1.93; T 1.71; F 1.48
P16: W 2.61; Q 2.17; G 1.92; F 2.73; C 2.54; H 2.45; T 2.94; V 2.86; M 2.57; N 1.65; E 2.37; Y 1.42; D 2.2; A 2.38; S 1.83; I 2.75; R 2.11; K 2.58
I23: D 2.81; G 2.14; E 3.12; T 3.04; A 2.82; V 1.8; C 2.12; F 1.2; K 2.53; P 2.42; N 2.71; H 2.43; W 2.47; Q 2.78; R 1.99; Y 2.51
V18: M 1.66; Q 2.38; F 1.85; I 2.23; K 2.33; G 3.04; Y 1.67; D 2.99; E 2.69; P 2.38; T 2.23; H 2.11; C 1.82; S 2.67; L 2.16; W 1.13; N 2.6; R 1.92; A 2.19
V13: W 2.11; M 2.23; Y 1.31; P 2.5; E 3.1; C 1.85; R 1.81; L 2.52; T 2.21; A 1.72; G 2.42; S 2.17; N 2.82; D 2.86; F 2.16; Q 2.35; K 2.08; H 2.24; I 2.15
G22: Q 1.82; A 2.19; S 1.7; P 2.14; L 1.51; E 2.71; C 1.62; V 2.43; D 2.44; N 2.25; M 1.46; R 1.55; I 1.81; Y 1.5; K 1.78; T 1.42; H 1.71
V17: H 2.15; D 2.6; A 2.1; Q 2.41; G 1.95; C 1.85; Y 1.72; P 2.85; L 1.74; E 3.08; S 1.88; N 1.76; F 2.88; W 1.94; T 2.32; I 1.62; K 2.31; R 1.98; M 2.07
E19: Y 2.53; H 2.01; A 1.59; P 2.34; K 2.23; C 1.39; T 1.66; L 1.42; F 1.89; G 1.74; I 1.77; Q 2.16; M 1.86; S 1.35; D 2.01; V 2; N 1.69; R 1.67
E15: D 1.96; W 2.39; R 1.32; L 2.31; Y 1.02; C 3.27; P 2.38; N 2.79; Q 1.61; M 2.85; T 1.42; A 2.22; I 3.11; F 2.48; K 2.34; H 1.75; G 1.6; S 1.7
I14: F 1.98; H 2.45; A 2.42; C 2.28; D 3.11; M 2.09; Y 1.93; S 2.43; T 2.1; K 3.07; P 3.08; L 1.95; R 2.78; N 2.62; E 3.1; G 2.51; Q 1.85; W 1.86; V 2.31
S21: R 1.74; D 2.4; H 2.09; T 1.82; A 1.76; M 1.78; Y 1.39; F 1.45; C 2.57; P 2.4; N 2.33; K 2.12; G 2.23; E 2.31; I 1.48; Q 2.6; L 2.03; V 1.6
S12: H 2.53; W 2.16; D 3.05; F 2.77; R 1.73; C 1.61; G 2.37; K 1.85; E 2.64; Q 1.92; M 1.8; N 2.08; V 1.86; A 1.98; Y 1.2; T 1.58; P 2.15
L24: C 2.02; M 2.02; R 2.46; N 2.48; Q 2.36; H 2.31; Y 2.31; V 2.21; S 2.58; F 2.12; P 2.41; W 1.4; D 2.48; A 2.08; G 2.47; I 3.15
M11: Y 2.17

Variants of: B2
Assay: as above
Conditions: c terminus: a fixed tail appended

Protein stability index: each site, then its substitutions
Y4: Q 1.93; I 1.96; D 2.75; H 2.25; S 1.67; G 2.01; K 1.48; P 1.9; C 1.85; E 2.69; F 1.41; T 1.82; W 1.75; V 3.54; L 2.27; A 1.17
A10: H 3.11; F 1.52
K1: F 2.55; S 1.84; P 1.79; N 2.21; C 1.46; G 2.53; D 2.06; E 2.58; L 1.6; M 1.79; T 1.93; R 1.92; H 2.25; Y 1.05
D7: E 1.02; A 1.87; M 2.84; R 2.62; C 1.61; T 2.39; L 1.82; S 2.02; V 1.23; P 3.44; Y 1.37; F 1.58
W5: R 2.1; H 2.9; V 4.52; K 2.01; Q 2.15; I 3.62; S 2.66; A 1.86; N 1.96; D 1.73; T 1.58; C 1.5; E 2.79
D9: E 2.54; G 2.88; H 2.57; N 1.59
T3: E 1.28; Q 2.91; S 1.6; W 1.12; I 1.46; A 1.78; L 2.83
L8: Y 3.05; T 2.24; M 2.72; E 2.94; N 1.73; R 3.06; P 1.82; F 2; D 2.83; H 2.47; Q 1.88; W 1.85; A 2.18
P6: H 1.96; A 2.54; G 1.82; S 1.67; Q 3.34; C 1.06; F 2.23; D 1.28; K 1.25; W 3.99
R2: P 2.7; N 2.14; Q 2.31; F 2.92; H 1.54; M 1.77; T 2.63; Y 1.09; E 2.14; W 1.32; V 2.43; K 2.56
